This is an account of results in paper PMC12754628.

In the data set the target is T1, CcpA (Staphylococcus aureus USA300) (UniProt P99175).
T1 sequence: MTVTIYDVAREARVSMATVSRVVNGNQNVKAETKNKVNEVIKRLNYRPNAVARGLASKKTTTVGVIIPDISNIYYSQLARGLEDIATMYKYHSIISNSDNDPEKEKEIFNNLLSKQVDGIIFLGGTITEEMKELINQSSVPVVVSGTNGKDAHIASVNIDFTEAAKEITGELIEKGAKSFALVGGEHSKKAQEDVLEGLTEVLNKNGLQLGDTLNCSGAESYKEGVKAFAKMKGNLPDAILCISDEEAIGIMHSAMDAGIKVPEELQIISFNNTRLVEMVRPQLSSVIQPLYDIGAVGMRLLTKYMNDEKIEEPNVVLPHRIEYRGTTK
The data set is described as follows: competition. As to conditions: 10 mM Tris-HCl pH 8.0, 5 mM MgCl2, 1 mM DTT, 50 mM KCl, 0.05% Nonidet P-40, 2.5% glycerol, 25 C, 30 min; 6% native PAGE in 0.5x TBE.

Turning to “ATGCTTTACCAGCTTTGAATGCTGGAACTTTACTTGCTGGGATATCAATTTCTTTACCAGTTTGAGGGTTACGACCTTTACGTGCAGCACGTTCACGTACCTCAAAGTTACCGAAACCAATTAATTGTACTTTTTCACCTTTAGCAAGTGAGTTTTGGATTGATTCGAATACAGCATCTACTGCTGAACCAGCTTCTTTTT (double strand) [hu]”, the binding result is “no binding”.
